# ± gives the uncertainty stated by the source.
# B1: Far upstream element-binding protein 1, residues 184 to 257; numbered along this chain, Q96AE4 (parent)
# chain: GNAVQEIMIPASKAGLVIGKGGETIKQLQERAGVKMVMIQDGPQNTGADKPLRITGDPYKVQQAKEMVLELIRD
# Variants of: B1
# Test: abundance fitness (aPCA) (normalised: wild type 0, dead -1); higher = more abundant; growth selection in yeast, the domain comes from the species named
# Settings: Homo sapiens
row,Variant,abundance fitness
1,Q29C,-0.2 ± 0.045
2,Q29D,-0.602 ± 0.06
3,G1R,-0.176 ± 0.038
4,G1M,0.173 ± 0.068
5,G1Y,-0.074 ± 0.067
6,A3M,0.256 ± 0.039
7,A3W,0.116 ± 0.033
8,A3E,0.039 ± 0.036
9,A3L,0.172 ± 0.031
10,P51N,-0.049 ± 0.055
11,P51D,-0.358 ± 0.049
12,P51Y,-0.059 ± 0.048
13,K20I,-0.129 ± 0.051
14,K20C,-0.14 ± 0.046
15,K20Y,-0.023 ± 0.046
16,K20T,-0.035 ± 0.033
17,R73E,0.088 ± 0.04
18,R73K,0.015 ± 0.042
19,R73L,-0.1 ± 0.034
20,R73S,0.044 ± 0.031
21,R73W,-0.033 ± 0.036

row,Variant,abundance fitness
1,R73Q,0.048 ± 0.044
2,R73H,0.031 ± 0.053
3,A64L,-0.839 ± 0.043
4,A64I,-0.561 ± 0.054
5,L52V,-0.145 ± 0.03
6,L52H,-0.853 ± 0.099
7,I18G,-0.148 ± 0.029
8,I18R,-0.104 ± 0.026
9,A48F,-0.01 ± 0.051
10,A48G,0.002 ± 0.027
11,G47L,-0.069 ± 0.031
12,G47R,-0.096 ± 0.028
13,Q27D,-0.005 ± 0.044
14,Q27M,-0.008 ± 0.045
15,Q27E,-0.001 ± 0.037
16,L69F,-0.077 ± 0.051
17,L69Q,0.003 ± 0.036
18,P10K,-0.287 ± 0.04
19,P10T,-0.456 ± 0.042
20,D41K,-0.007 ± 0.04
21,Q40H,-0.146 ± 0.057

row,Variant,abundance fitness
1,Q40C,-0.024 ± 0.049
2,Q63N,-0.107 ± 0.049
3,Q63F,-0.116 ± 0.047
4,V68N,-0.385 ± 0.047
5,V68P,-0.428 ± 0.047
6,V68F,-0.658 ± 0.057
7,V68D,-0.359 ± 0.041
8,I7F,-0.229 ± 0.055
9,I7L,-0.026 ± 0.03
10,I7D,-1.02 ± 0.076
11,T46S,-0.04 ± 0.032
12,T46M,-0.028 ± 0.038
13,A11V,-0.071 ± 0.03
14,A11G,-0.098 ± 0.027
15,M67Q,-0.067 ± 0.039
16,M67P,-0.455 ± 0.04
17,M67R,-0.096 ± 0.026
18,N2H,-0.311 ± 0.058
19,N2S,0.128 ± 0.031
20,N2C,0.052 ± 0.046
21,N2W,-0.028 ± 0.036

row,Variant,abundance fitness
1,N2F,0.043 ± 0.047
2,Q5L,-0.029 ± 0.029
3,Q5R,0.013 ± 0.025
4,M36E,-0.582 ± 0.044
5,M36N,-0.712 ± 0.077
6,M36Y,-0.786 ± 0.075
7,L71C,-0.048 ± 0.041
8,L71K,-0.001 ± 0.041
9,L71E,-0.089 ± 0.036
10,D49N,-0.034 ± 0.045
11,D49G,-0.084 ± 0.026
12,D49L,-0.052 ± 0.032
13,R31I,-0.12 ± 0.058
14,R31E,0 ± 0.033
15,R31V,-0.113 ± 0.031
16,R31G,-0.106 ± 0.028
17,K35P,-0.472 ± 0.042
18,K35N,0.023 ± 0.052
19,K35W,-0.308 ± 0.036
20,P58A,-0.012 ± 0.032
21,P58S,-0.064 ± 0.033

# Reference: the Human Domainome abundance scans (Beltran et al. 2025)
